The numbers were not newly measured in article PMC2921697, which cites them from elsewhere.

pKd: −log10 of the molar value.

In data set [1] the target is Barnase (denatured) (Bacillus amyloliquefaciens) (UniProt P00648). The experiment in a line: H/D exchange NMR.
Data set [2] has as its target prion protein (denatured recombinant) (UniProt P04156).

Consider GroEL (from UniProt P0A6F5), for which the pKd in data set [1] was 7.30. Regarding Hsp60 (from UniProt P10809), the pKd in data set [2] was 8.82.

In the case of SecB (from UniProt P0AG86), the pKd in data set [1] was 7.30.

One may read the pKd as the negative decadic logarithm of the Kd, by convention in mol/L.
